Data reported in patent US20240239907A1 (EDELWEISS IMMUNE, published 2024).

Assays:
human CXCR6 = target: T1, human CXCR6 (human, UniProt O00574 1-342); assay: screening on cells overexpressing CXCR6, one single concentration, yes/no
T1 construct: also called hu-CXCR6; wild type human CXCR6

cynomolgus monkey CXCR6 = target: T2, cynomolgus monkey CXCR6 (cynomolgus monkey, UniProt Q9BDS6 1-343); assay: as above
T2 construct: also called cyno-CXCR6; cyno monkey CXCR6
T2 sequence: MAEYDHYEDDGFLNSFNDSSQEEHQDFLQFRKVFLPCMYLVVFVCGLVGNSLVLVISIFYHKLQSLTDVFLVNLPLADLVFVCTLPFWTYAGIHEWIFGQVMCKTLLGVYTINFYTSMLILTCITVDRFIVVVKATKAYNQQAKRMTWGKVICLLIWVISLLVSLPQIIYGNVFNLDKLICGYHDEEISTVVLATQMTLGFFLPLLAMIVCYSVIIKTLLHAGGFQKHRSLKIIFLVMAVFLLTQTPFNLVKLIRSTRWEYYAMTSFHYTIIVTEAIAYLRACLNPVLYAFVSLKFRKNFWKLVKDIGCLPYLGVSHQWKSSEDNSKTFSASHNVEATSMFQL

[1] = target: T3, N-terminal fusion protein linking the extracellular N terminus of human CXCR6 and the Fc region of human IgG1 (human, not fully specified); assay: antibody pre-incubated with N-terminus-Fc fusion before staining human CXCR6 cells, flow cytometry (FIG. 12B)
T3 construct: not shown: Fc region of human IgG1
T3 chain: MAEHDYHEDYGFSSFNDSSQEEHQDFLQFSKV
Description: Three candidate antibodies that bind only to human CXCR6 and three candidate antibodies that bind to both human and cyno CXCR6 were further analyzed to locate their epitope residues. An N-terminal fusion protein was generated by linking the extracellular N terminus of human CXCR6 and the Fc region of human IgG1. Prior to staining cells over-expressing human CXCR6, the candidate antibodies (1 μg/ml) were pre-incubated with the N-terminal fusion protein (25 μg/ml) for 15 minutes at room temperature. A commercial antibody (R&D system, Minneapolis, MN) that only binds to human CXCR6 but not cyno- or mouse-CXCR6, was used as a control antibody.

T1 sequence (O00574 whole entry): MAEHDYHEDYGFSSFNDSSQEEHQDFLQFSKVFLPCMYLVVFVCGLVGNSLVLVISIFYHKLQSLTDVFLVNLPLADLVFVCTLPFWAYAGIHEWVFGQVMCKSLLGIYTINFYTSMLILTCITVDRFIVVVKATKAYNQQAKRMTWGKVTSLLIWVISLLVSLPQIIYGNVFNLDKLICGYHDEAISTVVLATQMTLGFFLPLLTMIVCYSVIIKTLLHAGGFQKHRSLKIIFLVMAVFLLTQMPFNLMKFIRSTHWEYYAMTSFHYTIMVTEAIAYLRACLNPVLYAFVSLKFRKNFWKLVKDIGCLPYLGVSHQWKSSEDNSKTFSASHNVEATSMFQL

binding result (human CXCR6): binds
binding result (cynomolgus monkey CXCR6): binds
binding result [1]: no binding
B1: Beacon2-G5 (antibody, V domains shown)
VH: EVQLVESGGDLVKPGGSLKLSCAASGFTFSSYGMSWVRQTPDKRLEWVATISSRGSYTYYPDSVKGRLTISRENAKNTLSLQMSSLKSEDTAMYYCARRVFPYWFFDVWGAGTTVTVSS
VL: DIVMTQSHKFMSTSVGDRVSITCKASQDVSTAVAWYQQKSGQSPKLLIYSASYRYTGVPDRFTGSGSGTDFTFTISSVQAEDLAVYYCQQHYTTPYTFGGGTKLEIK
notes: Mouse-derived
